In article PMC7703752, “Proteome-level assessment of origin, prevalence and function of leucine-aspartic acid (LD) motifs” (Bioinformatics, 2019):
Where no end group is shown, it is not given here. The star is where a group is joined. FITC = O=C1OC2(c3ccc(O)cc3Oc3cc(O)ccc32)c2ccc(NC(=S)*)cc21; Ahx = NCCCCCC(=O)O

Assays:
[1] = target: T1, Human α-parvin-CHC (residues 242-372) (human, UniProt Q9NVD7 242-372); test: fluorescence polarisation + MST; the 'quantitative' methods, summed up in one sentence for each peptide: direct anisotropy (protein serially diluted, FITC-Ahx peptide 0.1 μM; 20 mM HEPES pH 7.5, 150 mM NaCl, 2 mM EDTA, 2 mM DTT, 0.005% Tween-20; room temperature) and MST (protein diluted from 560 μM FAT or 530 μM α-parvin, labelled peptide 0.1 μM, 0.05% Tween-20, 25 °C); ITC in selected cases; conditions: both partners purified
T1 construct: α-parvin, human, C-terminal CH domain, residues 242-372; also called second CH domain of α-parvin; source: E. coli BL21, expressed as GST-fusion protein (pGex 6P1), purified as described previously (Lorenz et al., 2008)
T1 sequence (looked up): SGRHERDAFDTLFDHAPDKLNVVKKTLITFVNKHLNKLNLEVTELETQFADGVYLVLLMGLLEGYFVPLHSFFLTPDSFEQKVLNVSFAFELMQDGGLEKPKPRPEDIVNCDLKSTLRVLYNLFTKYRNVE

[2] = target: T2, FAT domain of human FAK (892-1052) (human, UniProt Q05397 892-1052); test: as above; conditions: both partners purified
T2 construct: focal adhesion kinase (FAK), human, FAT domain, residues 892-1052; 15N-labelled (M9 minimal medium) in the NMR titrations; also called FAK FAT; focal adhesion targeting domain; source: E. coli BL21, expressed as GST-fusion protein (pGexP2), purified as described previously (Arold et al., 2002)
T2 sequence (looked up): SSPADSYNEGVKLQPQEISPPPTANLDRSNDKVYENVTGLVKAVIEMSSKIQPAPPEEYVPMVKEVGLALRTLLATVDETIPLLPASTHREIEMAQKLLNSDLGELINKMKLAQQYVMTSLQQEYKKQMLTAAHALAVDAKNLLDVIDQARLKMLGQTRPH

[3] = target: T1, Human α-parvin-CHC (residues 242-372); test: fluorescence polarisation + other: differential scanning fluorimetry; the 'qualitative' methods, summed up in one sentence for each peptide: anisotropy competition (unlabelled peptide at 100 and 250 μM against 0.1 μM FITC-Ahx-LD4 with 10 μM FAT or 25 μM α-parvin) and DSF (10 μM protein, peptide at 100 and 250 μM; 20 mM HEPES pH 7.5, 150 mM NaCl, 2 mM EDTA, 1 mM TCEP); conditions: both partners purified
[4] = target: T2, FAT domain of human FAK (892-1052); test: as above; conditions: both partners purified
[5] = target: T3, Human α-parvin-CHC (residues 242–372) (human, UniProt Q9NVD7 242-372); test: fluorescence polarisation + MST + ITC + other: differential scanning fluorimetry; synthesized peptides against recombinant LDBDs in vitro; direct anisotropy with labelled candidate peptides, anisotropy competition of unlabelled peptides against fluorescently labelled known LD motifs, ITC, MST and DSF summed up together; 25°C, 20 mM HEPES pH 7.5, 150 mM NaCl, 2 mM EDTA, 1 mM TCEP, unless stated otherwise; conditions: both partners purified
T3 construct: α-parvin, human, second CH domain (CHC), residues 242-372; Purification and fate of the GST are told only in the Supplementary Material and in the cited work (Lorenz et al., 2008); also called second CH domain of α-parvin; source: E. coli BL21, expressed as GST-fusion protein
T3 sequence (looked up): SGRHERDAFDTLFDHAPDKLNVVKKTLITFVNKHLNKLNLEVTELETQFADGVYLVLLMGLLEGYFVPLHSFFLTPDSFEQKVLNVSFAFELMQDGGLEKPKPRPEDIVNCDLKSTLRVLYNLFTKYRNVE

[6] = target: T4, FAT domain of human FAK (892–1052) (human, UniProt Q05397 892-1052); test: ITC
T4 chain: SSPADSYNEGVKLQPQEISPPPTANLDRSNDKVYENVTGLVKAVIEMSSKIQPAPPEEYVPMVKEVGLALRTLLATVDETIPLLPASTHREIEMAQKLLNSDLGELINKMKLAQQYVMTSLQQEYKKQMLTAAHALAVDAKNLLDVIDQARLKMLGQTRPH

[7] = target: T5, Human α-parvin-CHC (residues 242–372) (human, UniProt Q9NVD7 242-372); test: FP
T5 chain: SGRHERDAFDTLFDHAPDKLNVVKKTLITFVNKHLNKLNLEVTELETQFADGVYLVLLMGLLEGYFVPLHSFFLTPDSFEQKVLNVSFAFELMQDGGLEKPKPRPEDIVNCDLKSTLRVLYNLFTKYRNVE

[8] = target: T4, FAT domain of human FAK (892–1052); test: FP
[9] = target: T5, Human α-parvin-CHC (residues 242–372); test: MST
[10] = target: T4, FAT domain of human FAK (892–1052); test: MST
[11] = target: T1, Human α-parvin-CHC (residues 242-372); test: fluorescence polarisation + other: differential scanning fluorimetry; the 'qualitative' methods, summed up in one sentence for each peptide: anisotropy competition (unlabelled peptide at 100 and 250 μM against 0.1 μM FITC-Ahx-LD4 with 10 μM FAT or 25 μM α-parvin) and DSF (10 μM protein, peptide at 100 and 250 μM; 20 mM HEPES pH 7.5, 150 mM NaCl, 2 mM EDTA, 1 mM TCEP); conditions: both partners purified; remark: listed apart in the source
[12] = target: T2, FAT domain of human FAK (892-1052); test: as above; conditions: both partners purified; remark: listed apart in the source
[13] = target: T2, FAT domain of human FAK (892-1052); test: fluorescence polarisation + MST; the 'quantitative' methods, summed up in one sentence for each peptide: direct anisotropy (protein serially diluted, FITC-Ahx peptide 0.1 μM; 20 mM HEPES pH 7.5, 150 mM NaCl, 2 mM EDTA, 2 mM DTT, 0.005% Tween-20; room temperature) and MST (protein diluted from 560 μM FAT or 530 μM α-parvin, labelled peptide 0.1 μM, 0.05% Tween-20, 25 °C); ITC in selected cases; conditions: both partners purified; remark: listed apart in the source
[14] = target: T6, FAT domain of human FAK (892–1052) (human, UniProt Q05397 892-1052); test: fluorescence polarisation + MST + ITC + other: differential scanning fluorimetry; synthesized peptides against recombinant LDBDs in vitro; direct anisotropy with labelled candidate peptides, anisotropy competition of unlabelled peptides against fluorescently labelled known LD motifs, ITC, MST and DSF summed up together; 25°C, 20 mM HEPES pH 7.5, 150 mM NaCl, 2 mM EDTA, 1 mM TCEP, unless stated otherwise; conditions: both partners purified
T6 construct: focal adhesion kinase (FAK), human, FAT domain, residues 892-1052; 15N-labelled for the NMR titrations; Purification and fate of the GST are told only in the Supplementary Material and in the cited work (Arold et al., 2002); also called FAK FAT; four-helix FAT domain from FAK; source: E. coli BL21, expressed as GST-fusion protein
T6 sequence (looked up): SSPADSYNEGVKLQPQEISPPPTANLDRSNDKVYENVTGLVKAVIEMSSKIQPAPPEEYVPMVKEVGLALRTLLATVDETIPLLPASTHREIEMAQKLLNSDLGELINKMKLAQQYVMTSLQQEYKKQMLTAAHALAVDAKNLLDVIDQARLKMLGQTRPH

B1: PPP2R3A LD motif peptide, FITC-Ahx-labelled (peptide)
peptide: {FITC-Ahx}-SQEEIDKLLMDLESFSQ
notes: Serine/threonine-protein phosphatase 2A regulatory subunit B'' subunit alpha, human; core motif 508-517; labelled form, used in direct anisotropy and MST; source: synthetic peptide, bought: GenScript
binding result [1]: binds
binding result [2]: binds

B2: CCDC158 LD motif peptide, unlabelled (peptide)
peptide: DPTRDLKQLLQELRSVIN
notes: core motif 903-912; form without label, used in ACA, DSF and NMR; also called CD158; source: synthetic peptide, bought: GenScript
binding result [3]: binds
binding result [4]: binds

B3: LPP (Lipoma-preferred partner) LD motif peptide (peptide)
peptide: AEIDSLTSILADLESS
modifications: also: N-terminal FITC-Ahx only in labelled form
notes: predicted LD motif of human LPP (Lipoma-preferred partner); source: synthetic peptide, bought: GenScript
binding result [5]: binds

B4: Paxillin LD4 peptide (peptide)
peptide: SASSATRELDELMASLSD
modifications: also: N-terminal FITC-Ahx only in labelled form
Kd [6]: 19.7 µM
Kd [7]: 24.5 µM
Kd [8]: 7.1 µM
Kd [9]: 3.1 µM
Kd [10]: 55.5 µM

B5: PPP2R3A LD motif peptide (peptide)
peptide: SQEEIDKLLMDLESFSQ
modifications: also: N-terminal FITC-Ahx only in labelled form
Kd [6]: 19.7 µM
Kd [7]: 23.3 µM
Kd [8]: 41 µM
Kd [10]: 90 µM

B6: LPP (Lipoma-preferred partner) LD motif peptide (peptide)
peptide: AEIDSLTSILADLESS
modifications: also: also used as N-terminal FITC-Ahx-labelled form
Kd [8]: 97.4 µM
Kd [9]: 169 µM

B7: EPB41L5 LD motif peptide, FITC-Ahx-labelled (peptide)
peptide: {FITC-Ahx}-ATDELDALLASLTENLID
notes: Band 4.1-like protein 5, human; core motif 634-643; labelled form, used in direct anisotropy and MST; also called E41L5; source: synthetic peptide, bought: GenScript
binding result [1]: binds
binding result [2]: binds

B8: NCOA2 (nuclear receptor coactivator 2) LD motif peptide (peptide)
peptide: SELDNLEEILDDLQNSQ
modifications: also: N-terminal FITC-Ahx only in labelled form
Kd [9]: 251 µM

B9: LPP LD motif peptide, unlabelled (peptide)
peptide: AEIDSLTSILADLESS
notes: Lipoma-preferred partner, human; core motif 123-132; form without label, used in ACA, DSF and NMR; also called lipoma-preferred partner peptide; source: synthetic peptide, bought: GenScript
binding result [11]: binds

B10: PPP2R3A LD motif peptide, unlabelled (peptide)
peptide: SQEEIDKLLMDLESFSQ
notes: Serine/threonine-protein phosphatase 2A regulatory subunit B'' subunit alpha, human; core motif 508-517; form without label, used in ACA, DSF and ITC; source: synthetic peptide, bought: GenScript
binding result [11]: binds
binding result [12]: binds

B11: RALGAPA1 LD motif peptide, unlabelled (peptide)
peptide: EDVLDELLQYLGVT
notes: core motif 1680-1689; form without label, used in ACA and DSF; also called RGPA1; source: synthetic peptide, bought: GenScript
binding result [11]: binds
binding result [12]: binds

B12: CCDC158 LD motif peptide, FITC-Ahx-labelled (peptide)
peptide: {FITC-Ahx}-DPTRDLKQLLQELRSVIN
notes: core motif 903-912; labelled form, used in direct anisotropy and MST; also called CD158; source: synthetic peptide, bought: GenScript
binding result [13]: binds

B13: EPB41L5 LD motif peptide, unlabelled (peptide)
peptide: ATDELDALLASLTENLID
notes: Band 4.1-like protein 5, human; core motif 634-643; form without label, used in ACA, DSF and ITC; also called E41L5; Band 4.1-like protein 5 peptide; source: synthetic peptide, bought: GenScript
binding result [11]: binds
binding result [12]: binds

B14: LPP LD motif peptide, FITC-Ahx-labelled (peptide)
peptide: {FITC-Ahx}-AEIDSLTSILADLESS
notes: Lipoma-preferred partner, human; core motif 123-132; labelled form, used in direct anisotropy and MST; source: synthetic peptide, bought: GenScript
binding result [1]: binds
binding result [2]: binds

B15: CAST LD motif peptide (peptide)
peptide: DAALDDLIDTLGGP
modifications: also: N-terminal FITC-Ahx only in labelled form
Kd [9]: 273 µM
Kd [10]: 178 µM

B16: C16orf71 LD motif peptide, unlabelled (peptide)
peptide: EAWDLDDILQSLQGQ
notes: Uncharacterized protein C16orf71, human; core motif 267-276; form without label, used in ACA and DSF; also called CP071; source: synthetic peptide, bought: GenScript
binding result [3]: binds
binding result [4]: binds

B17: C16orf71 LD motif peptide (peptide)
peptide: EAWDLDDILQSLQGQ
modifications: also: N-terminal FITC-Ahx only in labelled form
notes: predicted LD motif of human C16orf71; also called CP071; source: synthetic peptide, bought: GenScript
binding result [5]: binds
binding result [14]: binds
Kd [7]: 52 µM
Kd [9]: 32.3 µM
Kd [10]: 17.2 µM

B18: CREB3 LD motif peptide (peptide)
peptide: SDWEVDDLLCSLLSPPA
modifications: also: N-terminal FITC-Ahx only in labelled form
Kd [7]: 101 µM
Kd [9]: 110 µM

B19: NCOA3 (nuclear receptor coactivator 3) LD motif peptide (peptide)
peptide: GDLDNLDAILGDLTSSD
modifications: also: N-terminal FITC-Ahx only in labelled form
Kd [10]: 261 µM

B20: CCDC158 (Coiled-coil domain-containing protein 158) LD motif peptide (peptide)
peptide: DPTRDLKQLLQELRSVIN
modifications: also: N-terminal FITC-Ahx only in labelled form
Kd [8]: 41.6 µM
